# Target: the molecule itself
# Assay: SEC; analytical gel filtration, Superdex 75 10/300 GL, 10 mM Tris-HCl pH 8.5, 100 mM NaCl, 1 mM DTT; calibrated with BSA (66 kDa) and rabbit IgG (150 kDa)
Protein,stoichiometry N,binding result
"MaoC-like hydratase from Phytophthora capsici (enzyme, MaoC-like hydratase, Phytophthora capsici strain SD33, full length (Met-1 to Leu-298); Cloned BamHI/EcoRI into pET28a; no step that removes the tag is described, and the purified enzymes were detected with anti-His antibody on western blots; also called wild type MaoC; native MaoC; source: E. coli BL21 (DE3) pLysS, purified (Ni-NTA, Superdex-75 gel filtration)) MSVNVDKILNSPEATYTATYNQRDLLMYAVGIGESDLQFTYEFDEKFSAFPLYPVCLPFKGQSQDVVPFPPETISAAPDGMPSFNPAMILHGEQSVEILRPLDPSGGTLTGKTKVISFYDKGKGTLMETQTQFEDGNGPVAKLISGSFIRGLTGYEGKGRKLPARVQIPKRQPDFNDEFKTSPHQAQVYRLSGDYNSLHIDPEIAKSVGFKQPILHGLCSMGVASRALFKQFCGGDVARFKSIRVRFSSPCFPGETIQTRMWQEGSGKVLFQAVVKERGAVIVDGGEFVYTQDASARL",2,–
"MaoC Del63-88 (enzyme, MaoC-like hydratase, Phytophthora capsici strain SD33, full length with residues 63-88 deleted; Made from the wild-type plasmid (pET28-MaoC) with the MutanBEST kit; source: E. coli BL21 (DE3) pLysS, purified as described for the wild-type protein) MSVNVDKILNSPEATYTATYNQRDLLMYAVGIGESDLQFTYEFDEKFSAFPLYPVCLPFKGQILHGEQSVEILRPLDPSGGTLTGKTKVISFYDKGKGTLMETQTQFEDGNGPVAKLISGSFIRGLTGYEGKGRKLPARVQIPKRQPDFNDEFKTSPHQAQVYRLSGDYNSLHIDPEIAKSVGFKQPILHGLCSMGVASRALFKQFCGGDVARFKSIRVRFSSPCFPGETIQTRMWQEGSGKVLFQAVVKERGAVIVDGGEFVYTQDASARL",–,binds
"MaoC Del63-71 (enzyme, MaoC-like hydratase, Phytophthora capsici strain SD33, full length with residues 63-71 deleted; Made from the wild-type plasmid (pET28-MaoC) with the MutanBEST kit; source: E. coli BL21 (DE3) pLysS, purified as described for the wild-type protein) MSVNVDKILNSPEATYTATYNQRDLLMYAVGIGESDLQFTYEFDEKFSAFPLYPVCLPFKGQETISAAPDGMPSFNPAMILHGEQSVEILRPLDPSGGTLTGKTKVISFYDKGKGTLMETQTQFEDGNGPVAKLISGSFIRGLTGYEGKGRKLPARVQIPKRQPDFNDEFKTSPHQAQVYRLSGDYNSLHIDPEIAKSVGFKQPILHGLCSMGVASRALFKQFCGGDVARFKSIRVRFSSPCFPGETIQTRMWQEGSGKVLFQAVVKERGAVIVDGGEFVYTQDASARL",–,binds
